In US20240252614A1 (Pfizer, published 2024):

Key:
Experiment in all cases: BLI, no stress
hMPV117 = molecular target: T1, hMPV117 (hMPV B, UniProt Q6WB98 19-102)
T1 construct: T150C-R156C, A459P

hMPV120 = molecular target: T2, hMPV120 (hMPV B, UniProt Q6WB98 19-102)
T2 construct: A140C-S149C, T411C-Q434C

hMPV121 = molecular target: T3, hMPV121 (hMPV B, UniProt Q6WB98 19-102)
T3 construct: L141C-A161C, T411C-Q434C

hMPV123 = molecular target: T4, hMPV123 (hMPV B, UniProt Q6WB98 19-102)
T4 construct: A140C-S149C, G239A, T411C-Q434C

hMPV124 = molecular target: T5, hMPV124 (hMPV B, UniProt Q6WB98 19-102)
T5 construct: L141C-A161C, T411C-Q434C, A459P

hMPV128 = molecular target: T6, hMPV128 (hMPV B, UniProt Q6WB98 19-102)
T6 construct: T49I, A140C-S149C, G239A, T411C-Q434C, A459P

hMPV131 = molecular target: T7, hMPV131 (hMPV B, UniProt Q6WB98 19-102)
T7 construct: T49I, L141C-A161C, G239A, T411C-Q434C, A459P

hMPV134 = molecular target: T8, hMPV134 (hMPV B, UniProt Q6WB98 19-102)
T8 construct: T49I, L141C-A161C, S149T, G239A, T365I, T411C-Q434C, A459P

hMPV136 = molecular target: T9, hMPV136 (hMPV B, UniProt Q6WB98 19-102)
T9 construct: A140C-S149C, A459P

hMPV137 = molecular target: T10, hMPV137 (hMPV B, UniProt Q6WB98 19-102)
T10 construct: T49I, A140C-S149C

hMPV140 = molecular target: T11, hMPV140 (hMPV B, UniProt Q6WB98 19-102)
T11 construct: T49I, L141C-A161C, T411C-Q434C, A459P

hMPV142 = molecular target: T12, hMPV142 (hMPV B, UniProt Q6WB98 19-102)
T12 construct: L141C-A161C, S149T, A459P

B1: hMPV-2 mAb (antibody, V domains shown)
VH: QVQLQQSGAEVKKPGASVKVSCKASGYTFTSYGISWVRQAPGQGLEWMGWISGYNGNTNYAQTFQGTFTMTTDTSTSTAYMELRRLRSGDTAVYYCARDRYYASGSYNGMDVWGQGTTVTVSS
VL: QSALTQPPSASGAPGQRVTVSCSGSSSNVGSSSVYWYQQLPGTAPKLLIYRNNQRPSGVPDRFSGSKSGTSASLAISGLRSEDEADYYCAAWDDSLSGWVFGGGTKLTVLG
notes: human IgG1
hMPV117
  Response Shift: 0.723 nm
hMPV120
  Response Shift: 0.593 nm
hMPV121
  Response Shift: 0.842 nm
hMPV123
  Response Shift: 0.619 nm
hMPV124
  Response Shift: 0.833 nm
hMPV128
  Response Shift: 0.777 nm
hMPV131
  Response Shift: 0.727 nm
hMPV134
  Response Shift: 0.718 nm
hMPV136
  Response Shift: 0.591 nm
hMPV137
  Response Shift: 0.663 nm
hMPV140
  Response Shift: 0.731 nm
hMPV142
  Response Shift: 0.731 nm
